Assay results from paper PMC5736782, “The Differential Absorption of a Series of P-Glycoprotein Substrates in Isolated Perfused Lungs from Mdr1a/1b Genetic Knockout Mice can be Attributed to Distinct Physico-Chemical Properties: an Insight into Predicting Transporter-Mediated, Pulmonary Specific Disposition” (Pharmaceutical Research, 2017).

Columns and labels:
[1] = test system: CN1CCC[C@@H]1Cc1c[nH]c2ccc(CCS(=O)(=O)c3ccccc3)cc12; assay: purified protein, by the assay type; settings: other: ATPase, 0–300 μM, 30 min, 37°C
[2] = test system: CC[C@@]1([C@@H]2O[C@@H]([C@H]3O[C@@](O)(CO)[C@H](C)C[C@@H]3C)C[C@@H]2C)CC[C@H]([C@]2(C)CC[C@]3(C[C@H](O)[C@@H](C)[C@@H]([C@@H](C)[C@@H](OC)[C@H](C)C(=O)O)O3)O2)O1; assay: purified protein, by the assay type; settings: other: ATPase, 0–300 μM, 30 min, 37°C
Source text: The Gentest ATPase assay (Corning, Germany) was used to investigate the binding kinetics of the panel of P-gp substrates against membranes constituted to display human MDR1, mouse Mdr1a, mouse Mdr1b and mouse Bcrp. The assays measure the accumulation of inorganic phosphate (absorbance at 800 nm) produced in the breakdown of ATP to ADP. […] The assays were used in accordance with the manufacturer’s protocol to calculate (GraphPad Prism) the Michaelis-Menten parameters Km and VMAX. For the assay test compounds were serially diluted to produce an assay concentration range of 0–300 μM with the kinetics of ATP turnover examined over 30 min at 37°C.

Sequence of mouse Mdr1a (Mus musculus) (chain, as listed by the source): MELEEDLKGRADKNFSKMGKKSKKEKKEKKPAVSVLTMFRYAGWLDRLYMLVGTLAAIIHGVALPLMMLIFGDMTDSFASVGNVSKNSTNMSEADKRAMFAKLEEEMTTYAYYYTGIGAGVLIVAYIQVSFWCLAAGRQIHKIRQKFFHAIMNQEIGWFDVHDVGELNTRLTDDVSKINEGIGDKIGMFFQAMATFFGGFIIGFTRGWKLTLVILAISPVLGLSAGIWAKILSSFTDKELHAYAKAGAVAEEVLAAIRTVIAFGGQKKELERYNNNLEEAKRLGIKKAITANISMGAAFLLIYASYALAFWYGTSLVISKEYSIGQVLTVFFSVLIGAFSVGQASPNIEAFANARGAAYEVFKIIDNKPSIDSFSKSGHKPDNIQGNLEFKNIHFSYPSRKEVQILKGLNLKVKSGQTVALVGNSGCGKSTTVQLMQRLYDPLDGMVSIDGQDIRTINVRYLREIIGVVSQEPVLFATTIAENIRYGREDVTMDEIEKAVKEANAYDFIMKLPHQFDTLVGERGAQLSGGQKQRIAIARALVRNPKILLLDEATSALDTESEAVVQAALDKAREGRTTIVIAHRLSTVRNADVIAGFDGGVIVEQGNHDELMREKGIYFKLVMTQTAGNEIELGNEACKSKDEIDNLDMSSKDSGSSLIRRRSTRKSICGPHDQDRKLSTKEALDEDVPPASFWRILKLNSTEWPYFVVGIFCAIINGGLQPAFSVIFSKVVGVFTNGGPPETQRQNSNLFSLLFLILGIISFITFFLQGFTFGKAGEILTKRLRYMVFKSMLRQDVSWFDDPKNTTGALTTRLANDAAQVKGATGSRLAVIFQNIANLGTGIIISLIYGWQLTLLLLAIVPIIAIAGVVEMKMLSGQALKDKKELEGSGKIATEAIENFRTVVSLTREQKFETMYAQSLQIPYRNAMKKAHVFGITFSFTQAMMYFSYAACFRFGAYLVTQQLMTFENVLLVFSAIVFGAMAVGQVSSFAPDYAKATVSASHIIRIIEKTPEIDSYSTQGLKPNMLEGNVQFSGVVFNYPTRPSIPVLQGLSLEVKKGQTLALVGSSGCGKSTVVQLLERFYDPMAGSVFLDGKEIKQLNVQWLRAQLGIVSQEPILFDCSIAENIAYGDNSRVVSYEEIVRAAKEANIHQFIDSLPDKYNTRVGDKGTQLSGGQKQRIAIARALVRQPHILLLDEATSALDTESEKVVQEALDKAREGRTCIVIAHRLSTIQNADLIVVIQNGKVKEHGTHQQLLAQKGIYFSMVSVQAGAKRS

Row | Substance | Km [1] [µM] | Vmax [1] [µM/min] | Km [2] [µM] | Vmax [2] [µM/min]
1 | human MDR1 (Homo sapiens) | 91.5 | 42.2 | 14.8 | 15.6
2 | mouse Mdr1a (Mus musculus) | 45.6 | 32.6 | 22.0 | –
3 | mouse Mdr1b (Mus musculus) | 58.1 | 76.1 | 30.6 | –
